Data from the supplement of paper PMC9170038.

What follows are sequences tested on K4 kissing-loop RNA reporter (assay: apparent KD of K4 kissing-loop reporter; higher = weaker reporter binding). Settings: Eterna round: R107; input ligand: FMN 200 uM.
Procedure: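 RNA-MaP round R107: designed RNA switches with theophylline, tryptophan, arginine or FMN aptamers are transcribed on-chip within common flanks. They are titrated with a labelled K4 kissing-loop RNA reporter in RNA-MaP buffer (100 mM Tris pH 7.5, 80 mM KCl, 4 mM MgCl2), without ligand or with the indicated ligand. Median apparent KD per design.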
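Also: bound reporter read as fluorescence of individual clusters on recovered sequencing chips by microscopy, with normalized cluster intensities fitted with a binding model.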

In order of falling “apparent KD of K4 kissing-loop reporter” value:
1. UGUCAUUGGUCUGAUACCAGCUGAUCGGAAACGAUCUUGCUGGAGUGAUGUUCCAGGAAAAGCCCUUGGCAGCAGACCGAUGACU [TheoBS 10 #SwitchBubble #StaticStem]  1320 nM
2. UGUCAUUGGUCGGCCGCCACUAGAAGGUCAAAGACCAAAGAGUGAUGUUCUUAGACGAAAGUCACUAGGACCGGGACCGAUGACU [TrypBS 7 #SwitchBubble #K4Middle]  931 nM
3. GGAGCUACCUGGGAUACCAGUCGGAGUCUCAGAGCUCGGAGUGAUGUUCUGGGAUGUUUCGGCCCUUGGCAGCUCUGGGACUCCU [#2 Exclusion - Theophylline B Attempt #18 (HarryS)]  872 nM
4. AGUGAUGUUGAGUUAUCUUAGUGAAGUGAUCGAGGACCGGUACGGCCGCCACUCGAGUGAUGAGUGAGUGAUGUUUGUUUAGGGA [llkmullin]  695 nM
5. AAGUGUGUGGCGGCCGCCACUAGAAUCCAGUGAUGUUGGAGUUAUCAAAUAAAUGAUAAUCAACAUAGGACCGGGCCAUAUAGAA [Same State - Tryptophan B (Freestyle 4)]  690 nM
6. AUGACAGAAUCGGCCGCCACUCAUUGUCCUGUGGACAUUCUAGGAUUAGUGAUGUUUUUCCCAUCGAGGACCGGGAUACAGAUUG [theeternabot_sameState_KL_Trp_B_6]  675 nM
7. GGAUAGGAUAGAGGAUAUGGUAUAGGCAAGAAUAACUUGUCAUGUAAAUCCAUGAGGAGUGAUGUUCCAGAAGGCUGUCCUAUCG [MatMod 9 - Jieux - Exclusion - FMN B]  620 nM
8. UGUGUUGUUUUGAUGUUUGUUGUAAGGUGGCAGGAUAUCGUAGAGGCGAGAAGGGCUUUUUUGCGUUAUGAGUGAUGUUUGUAGG [exeerzmullin]  592 nM
9. GGAUCCACCAGUGAUGUUGGAGAAAACUCUAAGGAUAUGACGAAAGUCAGAAGGUGGUAGACUGGGCAAAGUCCGGUCGGAUCCA [FmnA10 U30+G66]  490 nM
10. AGUGAUGUUUCUUUUAAGAGUGAUGUUUUUCGAGGACCGGUACGGCCGCCACUCGAGUGAUGAGUGCGUCGUUGUGGUGAUUAGU [#13 K4 Tryptophan A Exclusion]  483 nM
11. CAACCGUAACACGAUACCAGCCUAGAAGCCAGUGAUGUUGGCCUUUUUUCGGAAAUGAAAGGCCCUUGGCAGCGUGGAUGAACUG [Dibibiquus]  468 nM
12. UGUCAUUGGUCGGCCGCCACUAGACGGACAUAAAGUCUGUCAUAAAGAGUGAUGUUCUUAAAUAAUAGGACCGGGACCGAUGACU [TrypBS 29 #SwitchBubble #StaticStem]  440 nM
13. UUGGGCAGUGAUGUUGGCUAGGCCACAGAUACCAGACGCAUGCACGUCCCUUGGCAGCUGCGAAAGUUAGACUUGUAAUGAUAGU [theeternabot_sameState_KL_Theo_A_45]  418 nM
14. GCAGCACCGAGUGAUGUUUGGUUCAGCGUGAAGGAUAUAAUAUCUGUUAGAAGGUCAAGUGAGAUUGUCGCGAAUCAGUUUUGAU [theeternabot_exclusion_KL_FMN_A_41]  368 nM
15. GGCAGUGAUGUUGCCAGUGGCAGAUGCGAAGGAGCGCAGUGAGAUGCAGGUAGGUCGCGCAUUGAAAUUGCUGUCACUAAAAUGC [#2]  363 nM
16. AUAUUAACUCAGUGAUGUUGAGUUGACGAAGGAGCGCUAGAGAUAGCAGGUAGGUCGCGUCAAUUUAAUGGAGACUAGCUUUACG [Arg A Ex t4]  343 nM
17. GCAGUGAUGUUGCGGAUGUACAGUGGAGUGCGAGGACCGGUACGGCCGCCACUCGUACAGAACAAGCUAAUACAUCGAUAGGUGA [XI]  323 nM
18. AGGAGCGUGCGAUGUAAAUCGCACGCUCCACGAGGACCGGUACGGCCGCCACUCGCUCGUGCAGAGUGAUGUUCUGCCGGCGAAU [#2 Same State - Tryptophan A Attempt #24 (HarryS)]  306 nM
19. AGUGUUAGGUUAGAUACCAGCCGUCCGUGGAUAACCCUCGGACCGCCAGUGAUGUUGGCAGGCCCUUGGCAGCUAACAGAACAGA [Beriisa]  263 nM
20. GGUCUGCCGCAGUGAUGUUGCUGGCAUACACGAGGACCGGUACGGCCGCCACUCGAUGCUCCAAGAACCACCAAUCUUCGGUAUC [theeternabot_sameState_KL_Trp_A_48]  257 nM
21. CUCGACACGGGAAGGAGCGGUUGCGUGUGCCAGUGAUGUUGGAUCAGCAGACUGCCCGGUAGCCAGGUAGGUCGCCUGUGCUGAG [Esbeescexe]  219 nM
22. UCGGGAGGCCGAAGGAGCGCCGCCAGUGAUGUUGGGAGUUAGAUACCAGUGAUGUUGGGCCGGCAGGUAGGUCGCGGCCGCGGAU [Exclusion Arginine B Gf 18]  201 nM
23. GAAAGAAAGAAUGAUACCAGACACCCGAGUGAUGUUCGGAGCAGAGUGAUGUUCUUAUAAGUCCCUUGGCAGCAUAAAAGAAAAG [whbob_SS_Theo_B_sa82]  192 nM
24. CGACUAUUUCGAUAGUCGAUAGACACGGAAGGAGCGGGAUUCGUCCCAGGUAGGUCGCCGUGAAGUUGAGUGAUGUUCAACGUGU [Arg A SS t13]  160 nM
25. CAUGGUGCUCGCCAGUUGUGCGAACGGUGGGAGGAUAUGUCGCGAGACAGAAGGCCCAGUGAUGUUGGGCAGGCUCGUAGAUCGA [Mazadi]  158 nM
26. GAAGGUCAAAGACCUUCGUGCACAACUGAUACCAGUCGCGAAAGCGACCCUUGGCAGCAGGGCAGUGAUGUUGCCAGUGCACAAA [Omei KL Theo A SS A v3]  157 nM
27. AGGGACUCUUCGGAGUCCCGGUUAAGGGAUACCAGUGAUGUUGGUCACCCUUGGCAGCCCAGAAACCAAGCCACCAAAGGUGGCA [Omei KL Theo A Exc A v2]  150 nM
28. AACGCUGUGAAUAACACAGCGAAUAAUUCGCGAGGACCGGUACGGCCGCCACUCGCUAACUGCGAGUGAUGUUCGAUAAUAAAAU [Mat - Mod of OpenEnded 3 - D12]  148 nM
29. GCCGUAGAUUGAAGGAGCGGACAGAUACGGGAAUCCAGUGAUGUUGGAAGGUAACUACUAGUCCAGGUAGGUCGCAAUCUACGGC  143 nM
30. GCCGUACGCAUGGAUACCAGCAUCAGAUCUUAGUGAUGUUAAGUCGAGAGUUGGUCAAAAUGCCCUUGGCAGCCAUGCGUACGGC  128 nM
31. UAUCUUUGCUGAAGGAGCGAGCAUGUUGGAGUGAUGUUCCGUGCGAGUGAUGUUCGCAUAGCUCAGGUAGGUCGCAGUGGGAGGA [KL-SSArg B29]  120 nM
32. AAUAGAUCAUUAUAGUGAUAAAUGCCUGAUACCAGUGAGAGAUGGCACCCUUGGCAGCAGAGAUGAGUGAUGUUCAGACUGUAAA [theeternabot_sameState_KL_Theo_A_11]  114 nM
33. AGUGAUAUAUGAGGAUAUGGGUUAAUUAGUGAGUUAUUUUUAGUGUUGUUUGAUUAGUGAUGUUAUUUAGAAGGCGUGAGUGAUG [awwswmjmullin]  113 nM
34. AGAUCUGUAACAGAUACCAGAGGACGAUGAUCGAACAGUGAUGUUAUCUGUUAGUCGUCGCUCCCUUGGCAGCUGUUACAGAUCA [Omei KL Theo B SS B v4]  106 nM
35. AGAAGAUAUCAAGAUACCAGCUCCCGGCCCAAAACCCAGAUACACGAGUGAUGUUCGUUCAGCCCUUGGCAGCUUGCCUAGUUCU [theeternabot_sameState_KL_Theo_B_6]  94.4 nM
36. CUUACCCAUCGGAUGGAUCAACUGCACACGAAGGAUAUACACACGGGUAGAAGGUCGGGAUUCCAGUGAUGUUGGAUGGUACGAC [theeternabot_exclusion_KL_FMN_A_29]  87.2 nM
37. AAGUGAUGUUGUAGUGAUGUUGUGAUGUUGCAGGAUAUAUAGUGAUGUAGAAGGGUAUGUUCAGUUUUUUUUUUUGAGUGUUGAU [szxmullin]  84.3 nM
38. UGUCAUGGAAACAUGAACGUUGAUGUUCGACGAGGACCGGUACGGCCGCCACUCGAGUAAUAGUCAGUGAUGUUGACUAGUCUAA [KL-SSTryp-A form1]  76.7 nM
39. UACUAGUGAAACUAGUAGGUGCUAGGUGAAGGAGCGAUCGAAAGAUCAGGUAGGUCGCACCUUCCUGAGUGAUGUUCAGGUAAUA [KL-SSArg-A3]  47.2 nM
40. UGACUGGACUGAAGGAGCGCUGAAGGAGCGUAAGUAGUGAUGUUGCUUACAGGUAGGUCGCAGCAGGUAGGUCGCAGUCUAGUCU  45.3 nM

Same assay, conditions: Eterna round: R107; input ligand: arginine 13.2 mM

In order of rising “apparent KD of K4 kissing-loop reporter” value:
1. AGAUCUGUAACAGAUACCAGAGGACGAUGAUCGAACAGUGAUGUUAUCUGUUAGUCGUCGCUCCCUUGGCAGCUGUUACAGAUCA [Omei KL Theo B SS B v4]  46.2 nM
2. AACGCUGUGAAUAACACAGCGAAUAAUUCGCGAGGACCGGUACGGCCGCCACUCGCUAACUGCGAGUGAUGUUCGAUAAUAAAAU [Mat - Mod of OpenEnded 3 - D12]  116 nM
3. AAUAGAUCAUUAUAGUGAUAAAUGCCUGAUACCAGUGAGAGAUGGCACCCUUGGCAGCAGAGAUGAGUGAUGUUCAGACUGUAAA [theeternabot_sameState_KL_Theo_A_11]  118 nM
4. GCCGUAGAUUGAAGGAGCGGACAGAUACGGGAAUCCAGUGAUGUUGGAAGGUAACUACUAGUCCAGGUAGGUCGCAAUCUACGGC  128 nM
5. GAAGGUCAAAGACCUUCGUGCACAACUGAUACCAGUCGCGAAAGCGACCCUUGGCAGCAGGGCAGUGAUGUUGCCAGUGCACAAA [Omei KL Theo A SS A v3]  166 nM
6. AGUGUUAGGUUAGAUACCAGCCGUCCGUGGAUAACCCUCGGACCGCCAGUGAUGUUGGCAGGCCCUUGGCAGCUAACAGAACAGA [Beriisa]  208 nM
7. GCAGCACCGAGUGAUGUUUGGUUCAGCGUGAAGGAUAUAAUAUCUGUUAGAAGGUCAAGUGAGAUUGUCGCGAAUCAGUUUUGAU [theeternabot_exclusion_KL_FMN_A_41]  248 nM
8. GCAGUGAUGUUGCGGAUGUACAGUGGAGUGCGAGGACCGGUACGGCCGCCACUCGUACAGAACAAGCUAAUACAUCGAUAGGUGA [XI]  358 nM
9. UGUGUUGUUUUGAUGUUUGUUGUAAGGUGGCAGGAUAUCGUAGAGGCGAGAAGGGCUUUUUUGCGUUAUGAGUGAUGUUUGUAGG [exeerzmullin]  379 nM
10. GGAGCUACCUGGGAUACCAGUCGGAGUCUCAGAGCUCGGAGUGAUGUUCUGGGAUGUUUCGGCCCUUGGCAGCUCUGGGACUCCU [#2 Exclusion - Theophylline B Attempt #18 (HarryS)]  749 nM
